This is an account of results in patent US20240034774A1 (Gilead, published 2024).

For assay [1], the target named is BSA (UniProt P02769 25-607). Kind of assay: single-point ELISA, BSA control. (An ELISA detects its analyte on a solid surface through an enzyme-linked reagent.)
Assay [2] deals with gp120 Bal (HIV (Bal)). Kind of assay: single-point ELISA at EC50 conc. of A-1.
Assay [3] has as its target gp120 CAAN (HIV (CAAN)). Kind of assay: single-point ELISA at EC50 conc. of A-1.
Assay [4] has as its target gp120 SHIV SF162 P3 (SHIV SF162 P3). Nature of the assay: single-point ELISA at EC50 conc. of A-1.

B1: 1.1.7-1 (antibody, human IgG1, kappa)
heavy: QVQLLQSGAAVTKPGASVRVSCEASGYNIRDYFIHWWRQAPGQGLQWVGWINPKTGQPNNPRQFQGRVSLTRHASWDFDTFSFYMDLKALRSDDTAVYFCARQRSDYWDFDVWGSGTQVTVSSASTKGPSVFPLAPSSKSTSGGTAALGCLVKDYFPEPVTVSWNSGALTSGVHTFPAVLQSSGLYSLSSVVTVPSSSLGTQTYICNVNHKPSNTKVDKKVEPKSCDKTHTCPPCPAPELLAGPDVFLFPPKPKDTLMISRTPEVTCVVVDVSHEDPEVKFNWYVDGVEVHNAKTKPREEQYNSTYRVVSVLTVLHQDWLNGKEYKCKVSNKALPLPEEKTISKAKGQPREPQVYTLPPSREEMTKNQVSLTCLVKGFYPSDIAVEWESNGQPENNYKTTPPVLDSDGSFFLYSKLTVDKSRWQQGNVFSCSVLHEALHSHYTQKSLSLSPGK
light: DIQMTQSPSSLSASVGDTVTITCQANGYLNWYQQRRGKAPKLLIYDGSNLERGVPSRFSGRRWGQEYNLTINNLQPEDIATYFCQVYEFVVPGTRLDLKRTVAAPSVFIFPPSDEQLKSGTASVVCLLNNFYPREAKVQWKVDNALQSGNSQESVTEQDSKDSTYSLSSTLTLSKADYEKHKVYACEVTHQGLSSPVTKSFNRGEC
Consider B1, for which the “ELISA A450” value in assay [1] came out at 0.06 A450; in assay [2], 0.95 A450; in assay [3] it was 1 A450; in assay [4], 1.02 A450.

B2: 1.1.15-1 (antibody, human IgG1, kappa)
heavy: QVQLLQSGAAVTKPGASVRVSCEASGYNIRDYFIHWWRQAPGQGLQWVGWINPKTGQPNNPRQFQGRVSLTRHASWDFDTFSFYMDLKALRSDDTAVYFCARQRSDYWDFDVWGSGTQVTVSSASTKGPSVFPLAPSSKSTSGGTAALGCLVKDYFPEPVTVSWNSGALTSGVHTFPAVLQSSGLYSLSSVVTVPSSSLGTQTYICNVNHKPSNTKVDKKVEPKSCDKTHTCPPCPAPELLAGPDVFLFPPKPKDTLMISRTPEVTCVVVDVSHEDPEVKFNWYVDGVEVHNAKTKPREEQYNSTYRVVSVLTVLHQDWLNGKEYKCKVSNKALPLPEEKTISKAKGQPREPQVYTLPPSREEMTKNQVSLTCLVKGFYPSDIAVEWESNGQPENNYKTTPPVLDSDGSFFLYSKLTVDKSRWQQGNVFSCSVLHEALHSHYTQKSLSLSPGK
light: DIQMTQSPSSLSASVGDTVTITCQANGYLNWYQQRRGKAPKLLIYDGSKLERGVPSRFSGRRWGQEYNLTINNLQPEDIATYFCQVYEFFVPGTRLDLKRTVAAPSVFIFPPSDEQLKSGTASVVCLLNNFYPREAKVQWKVDNALQSGNSQESVTEQDSKDSTYSLSSTLTLSKADYEKHKVYACEVTHQGLSSPVTKSFNRGEC
For the molecule B2, the “ELISA A450” value amounted to 0.06 A450 in assay [1], 0.93 A450 in assay [2], 0.79 A450 in assay [3] and 0.79 A450 in assay [4].

B3: 1.1.10-1 (antibody, human IgG1, kappa)
heavy: QVQLLQSGAAVTKPGASVRVSCEASGYNIRDYFIHWWRQAPGQGLQWVGWINPKTGQPNNPRQFQGRVSLTRHASWDFDTFSFYMDLKALRSDDTAVYFCARQRSDYWDFDVWGSGTQVTVSSASTKGPSVFPLAPSSKSTSGGTAALGCLVKDYFPEPVTVSWNSGALTSGVHTFPAVLQSSGLYSLSSVVTVPSSSLGTQTYICNVNHKPSNTKVDKKVEPKSCDKTHTCPPCPAPELLAGPDVFLFPPKPKDTLMISRTPEVTCVVVDVSHEDPEVKFNWYVDGVEVHNAKTKPREEQYNSTYRVVSVLTVLHQDWLNGKEYKCKVSNKALPLPEEKTISKAKGQPREPQVYTLPPSREEMTKNQVSLTCLVKGFYPSDIAVEWESNGQPENNYKTTPPVLDSDGSFFLYSKLTVDKSRWQQGNVFSCSVLHEALHSHYTQKSLSLSPGK
light: DIQMTQSPSSLSASVGDTVTITCQANGYLNWYQQRRGKAPKLLIYDGSKLERGVPSRFSGRRWGQEYTLTINNLQPEDIATYFCQVYEFVVPGTRLDLKRTVAAPSVFIFPPSDEQLKSGTASVVCLLNNFYPREAKVQWKVDNALQSGNSQESVTEQDSKDSTYSLSSTLTLSKADYEKHKVYACEVTHQGLSSPVTKSFNRGEC
Regarding B3, the “ELISA A450” value in assay [1] is 0.06 A450; in assay [2] it was 0.94 A450; in assay [3] it was 1.1 A450; in assay [4] it was 1.02 A450.

B4: 1.1.12-1 (antibody, human IgG1, kappa)
heavy: QVQLLQSGAAVTKPGASVRVSCEASGYNIRDYFIHWWRQAPGQGLQWVGWINPKTGQPNNPRQFQGRVSLTRHASWDFDTFSFYMDLKALRSDDTAVYFCARQRSDYWDFDVWGSGTQVTVSSASTKGPSVFPLAPSSKSTSGGTAALGCLVKDYFPEPVTVSWNSGALTSGVHTFPAVLQSSGLYSLSSVVTVPSSSLGTQTYICNVNHKPSNTKVDKKVEPKSCDKTHTCPPCPAPELLAGPDVFLFPPKPKDTLMISRTPEVTCVVVDVSHEDPEVKFNWYVDGVEVHNAKTKPREEQYNSTYRVVSVLTVLHQDWLNGKEYKCKVSNKALPLPEEKTISKAKGQPREPQVYTLPPSREEMTKNQVSLTCLVKGFYPSDIAVEWESNGQPENNYKTTPPVLDSDGSFFLYSKLTVDKSRWQQGNVFSCSVLHEALHSHYTQKSLSLSPGK
light: DIQMTQSPSSLSASVGDTVTITCQANGYLNWYQQRRGKAPKLLIYDGSKLERGVPSRFSGRRWGQEYNLTISSLQPEDIATYFCQVYEFVVPGTRLDLKRTVAAPSVFIFPPSDEQLKSGTASVVCLLNNFYPREAKVQWKVDNALQSGNSQESVTEQDSKDSTYSLSSTLTLSKADYEKHKVYACEVTHQGLSSPVTKSFNRGEC
With B4, the “ELISA A450” value turned out to be 0.06 A450 in assay [1], 1.05 A450 in assay [2], 1.02 A450 in assay [3] and 1.13 A450 in assay [4].

B5: 1.1.13-1 (antibody, human IgG1, kappa)
heavy: QVQLLQSGAAVTKPGASVRVSCEASGYNIRDYFIHWWRQAPGQGLQWVGWINPKTGQPNNPRQFQGRVSLTRHASWDFDTFSFYMDLKALRSDDTAVYFCARQRSDYWDFDVWGSGTQVTVSSASTKGPSVFPLAPSSKSTSGGTAALGCLVKDYFPEPVTVSWNSGALTSGVHTFPAVLQSSGLYSLSSVVTVPSSSLGTQTYICNVNHKPSNTKVDKKVEPKSCDKTHTCPPCPAPELLAGPDVFLFPPKPKDTLMISRTPEVTCVVVDVSHEDPEVKFNWYVDGVEVHNAKTKPREEQYNSTYRVVSVLTVLHQDWLNGKEYKCKVSNKALPLPEEKTISKAKGQPREPQVYTLPPSREEMTKNQVSLTCLVKGFYPSDIAVEWESNGQPENNYKTTPPVLDSDGSFFLYSKLTVDKSRWQQGNVFSCSVLHEALHSHYTQKSLSLSPGK
light: DIQMTQSPSSLSASVGDTVTITCQANGYLNWYQQRRGKAPKLLIYDGSKLERGVPSRFSGSRWGQEYTLTISSLQPEDIATYFCQVYEFVVPGTRLDLKRTVAAPSVFIFPPSDEQLKSGTASVVCLLNNFYPREAKVQWKVDNALQSGNSQESVTEQDSKDSTYSLSSTLTLSKADYEKHKVYACEVTHQGLSSPVTKSFNRGEC
Turning to B5, the “ELISA A450” value came out at 0.06 A450 in assay [1], 0.94 A450 in assay [2], 1.11 A450 in assay [3] and 0.97 A450 in assay [4].

B6: 1.1.8-1 (antibody, human IgG1, kappa)
heavy: QVQLLQSGAAVTKPGASVRVSCEASGYNIRDYFIHWWRQAPGQGLQWVGWINPKTGQPNNPRQFQGRVSLTRHASWDFDTFSFYMDLKALRSDDTAVYFCARQRSDYWDFDVWGSGTQVTVSSASTKGPSVFPLAPSSKSTSGGTAALGCLVKDYFPEPVTVSWNSGALTSGVHTFPAVLQSSGLYSLSSVVTVPSSSLGTQTYICNVNHKPSNTKVDKKVEPKSCDKTHTCPPCPAPELLAGPDVFLFPPKPKDTLMISRTPEVTCVVVDVSHEDPEVKFNWYVDGVEVHNAKTKPREEQYNSTYRVVSVLTVLHQDWLNGKEYKCKVSNKALPLPEEKTISKAKGQPREPQVYTLPPSREEMTKNQVSLTCLVKGFYPSDIAVEWESNGQPENNYKTTPPVLDSDGSFFLYSKLTVDKSRWQQGNVFSCSVLHEALHSHYTQKSLSLSPGK
light: DIQMTQSPSSLSASVGDTVTITCQANGYLNWYQQRRGKAPKLLIYDASNLERGVPSRFSGRRWGQEYNLTINNLQPEDIATYFCQVYEFVVPGTRLDLKRTVAAPSVFIFPPSDEQLKSGTASVVCLLNNFYPREAKVQWKVDNALQSGNSQESVTEQDSKDSTYSLSSTLTLSKADYEKHKVYACEVTHQGLSSPVTKSFNRGEC
In the case of B6, the “ELISA A450” value was 0.06 A450 in assay [1], 1.01 A450 in assay [2], 0.5 A450 in assay [3] and 0.37 A450 in assay [4].

B7: 1.1.11-1 (antibody, human IgG1, kappa)
heavy: QVQLLQSGAAVTKPGASVRVSCEASGYNIRDYFIHWWRQAPGQGLQWVGWINPKTGQPNNPRQFQGRVSLTRHASWDFDTFSFYMDLKALRSDDTAVYFCARQRSDYWDFDVWGSGTQVTVSSASTKGPSVFPLAPSSKSTSGGTAALGCLVKDYFPEPVTVSWNSGALTSGVHTFPAVLQSSGLYSLSSVVTVPSSSLGTQTYICNVNHKPSNTKVDKKVEPKSCDKTHTCPPCPAPELLAGPDVFLFPPKPKDTLMISRTPEVTCVVVDVSHEDPEVKFNWYVDGVEVHNAKTKPREEQYNSTYRVVSVLTVLHQDWLNGKEYKCKVSNKALPLPEEKTISKAKGQPREPQVYTLPPSREEMTKNQVSLTCLVKGFYPSDIAVEWESNGQPENNYKTTPPVLDSDGSFFLYSKLTVDKSRWQQGNVFSCSVLHEALHSHYTQKSLSLSPGK
light: DIQMTQSPSSLSASVGDTVTITCQANGYLNWYQQRRGKAPKLLIYDGSKLERGVPSRFSGSRWGQEYTLTINNLQPEDIATYFCQVYEFVVPGTRLDLKRTVAAPSVFIFPPSDEQLKSGTASVVCLLNNFYPREAKVQWKVDNALQSGNSQESVTEQDSKDSTYSLSSTLTLSKADYEKHKVYACEVTHQGLSSPVTKSFNRGEC
As for B7, the “ELISA A450” value turned out to be 0.06 A450 in assay [1], 0.92 A450 in assay [2], 1.03 A450 in assay [3] and 0.93 A450 in assay [4].

B8: 1.1.9-1 (antibody, human IgG1, kappa)
heavy: QVQLLQSGAAVTKPGASVRVSCEASGYNIRDYFIHWWRQAPGQGLQWVGWINPKTGQPNNPRQFQGRVSLTRHASWDFDTFSFYMDLKALRSDDTAVYFCARQRSDYWDFDVWGSGTQVTVSSASTKGPSVFPLAPSSKSTSGGTAALGCLVKDYFPEPVTVSWNSGALTSGVHTFPAVLQSSGLYSLSSVVTVPSSSLGTQTYICNVNHKPSNTKVDKKVEPKSCDKTHTCPPCPAPELLAGPDVFLFPPKPKDTLMISRTPEVTCVVVDVSHEDPEVKFNWYVDGVEVHNAKTKPREEQYNSTYRVVSVLTVLHQDWLNGKEYKCKVSNKALPLPEEKTISKAKGQPREPQVYTLPPSREEMTKNQVSLTCLVKGFYPSDIAVEWESNGQPENNYKTTPPVLDSDGSFFLYSKLTVDKSRWQQGNVFSCSVLHEALHSHYTQKSLSLSPGK
light: DIQMTQSPSSLSASVGDTVTITCQANGYLNWYQQRRGKAPKLLIYDGSKLETGVPSRFSGRRWGQEYNLTINNLQPEDIATYFCQVYEFVVPGTRLDLKRTVAAPSVFIFPPSDEQLKSGTASVVCLLNNFYPREAKVQWKVDNALQSGNSQESVTEQDSKDSTYSLSSTLTLSKADYEKHKVYACEVTHQGLSSPVTKSFNRGEC
As for B8, the “ELISA A450” value is 0.07 A450 in assay [1], 0.98 A450 in assay [2], 0.93 A450 in assay [3] and 1.09 A450 in assay [4].
